Source: patent publication US5763590A (Vertex Pharmaceuticals, Inc., priority 1994, dated 1998)
Read-outs that look alike come from different tables or passages of the source.

How the values were obtained:
hFKBP52 = target: T1, hFKBP52 (Homo sapiens, UniProt Q02790); test: Inhibition of peptidyl-prolyl cis-trans isomerase (PPIase) activity of hFKBP52; format: biochemical
T1 construct: The hFKBP52 open reading frame (ORF) was expressed in E. coli with a vector (pQE8, Qiagen Inc.); histidine tag (pQE8) (N, cleaved yes); Factor Xa cleavage site (Ile-Glu-Gly-Arg) (N, cleaved yes); made in house; host or cells: E. coli XA90
T1 sequence (Q02790 1-459): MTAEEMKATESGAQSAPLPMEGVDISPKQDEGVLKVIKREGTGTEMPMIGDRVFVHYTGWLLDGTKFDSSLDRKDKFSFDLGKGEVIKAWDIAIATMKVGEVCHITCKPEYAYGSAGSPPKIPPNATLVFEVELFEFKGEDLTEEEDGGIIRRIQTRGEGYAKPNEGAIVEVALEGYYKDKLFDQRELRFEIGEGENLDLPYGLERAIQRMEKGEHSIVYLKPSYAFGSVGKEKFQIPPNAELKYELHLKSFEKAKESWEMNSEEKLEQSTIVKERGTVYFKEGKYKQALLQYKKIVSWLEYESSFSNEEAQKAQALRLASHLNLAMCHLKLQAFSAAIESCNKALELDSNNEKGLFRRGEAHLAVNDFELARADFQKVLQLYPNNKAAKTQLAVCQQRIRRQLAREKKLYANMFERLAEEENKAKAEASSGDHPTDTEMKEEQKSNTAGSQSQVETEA
Method: The peptidyl-prolyl isomerization rate was determined by coupling isomerization of a prolyl-containing peptide to trans substrate hydrolysis by chymotrypsin (Fisher, G., et al., Nature 337:476-478 (1989)). The assay was performed according to Harrison and Stein (Biochem., 29:3813-3816 (1980) with modifications described by Park S. T., et al., J. Biol. Chem. 267:3316-3324 (1992). The tetrapeptide substrate succinyl-Ala-P1-Pro-Phe-p-nitroanilide, where P1=Leu, was used to determine specific activity and inhibition constants, and a series of peptide substrates with related structures (P1=Phe, Val, Ala, Gly, Glu or Lys) was used to determine substrate specificity. Protein concentrations of rhFKBP52 stock solutions were determined by a Coomassie Blue binding assay (Bradford, M., Anal. Biochem., 72:248-254 (1976)). FKBP52 (60 nM final) was added to a reaction mixture containing substrate (27 μM final) in 0.1M Tris-HCl, pH 7.8 at 15° C., and the solution was incubated in a 2 ml cuvette for 5 min at 15° C. […] For measurement of substrate specificity, the final FKBP52 concentration was adjusted so the Kobs was at least four-fold higher than knon-enz. Inhibition data were fit to an equation for tight-binding competitive inhibitors using KineTic™ software (BioKin, Ltd.) running on a Macintosh IIcx computer.

[1] = cited from earlier work
[2] = PPIase catalysis of the isomerization of tetrapeptide substrates (chymotrypsin-coupled assay); format: biochemical
Method: As described in detail in Example 2, the assay of Harrison and Stein (Harrison, R. K. and R. L. Stein, Biochemistry 29:3813-3816 (1990)) can be used to measure peptidyl prolyl cis-trans isomerization (PPIase) activity of FKBP52.
The peptidyl-prolyl isomerization rate was determined by coupling isomerization of a prolyl-containing peptide to trans substrate hydrolysis by chymotrypsin (Fisher, G., et al., Nature 337:476-478 (1989)). The assay was performed according to Harrison and Stein (Biochem., 29:3813-3816 ([…]) with modifications described by Park S. T., et al., J. Biol. Chem. 267:3316-3324 (1992). The tetrapeptide substrate succinyl-Ala-P1-Pro-Phe-p-nitroanilide, where P1=Leu, was used to determine specific activity and inhibition constants, and a series of peptide substrates with related structures (P1=Phe, Val, Ala, Gly, Glu or Lys) was used to determine substrate specificity. Protein concentrations of rhFKBP52 stock solutions were determined by a Coomassie Blue binding assay (Bradford, M., Anal. Biochem., 72:248-254 (1976)). FKBP52 (60 nM final) was added to a reaction mixture containing substrate (27 μM final) in 0.1M Tris-HCl, pH 7.8 at 15° C., and the solution was incubated in a 2 ml cuvette for 5 min at 15° C. (950 μl final) before adding chymotrypsin (100 μg ml^-1 final) to start reaction. For measurement of substrate specificity, the final FKBP52 concentration was adjusted so the Kobs was at least four-fold higher than knon-enz. Inhibition data were fit to an equation for tight-binding competitive inhibitors using KineTic™ software (BioKin, Ltd.) running on a Macintosh IIcx computer.

CO[C@H]1C[C@@H]2CC[C@@H](C)[C@@](O)(O2)C(=O)C(=O)N2CCCC[C@H]2C(=O)O[C@H]([C@H](C)C[C@@H]2CC[C@@H](O)[C@H](OC)C2)CC(=O)[C@H](C)/C=C(\C)[C@@H](O)[C@@H](OC)C(=O)[C@H](C)C[C@H](C)/C=C/C=C/C=C/1C [rapamycin]
Ki (hFKBP52): 8 nM

hFKBP12: recombinant human FK506 binding protein of Mr about 11,800, used as comparator PPIase
Specific activity at 15° C. ([1]; Substrate P1 = Ala, data from Park et al. 1992): 310000 M⁻¹ s⁻¹ | Specific activity at 15° C. ([1]; Substrate P1 = Leu (Suc-Ala-Leu-Pro-Phe-pNA), data from Park et al. 1992, listed as FKBP12): 4.3e+06 M⁻¹ s⁻¹ | Specific activity at 15° C. ([1]; Substrate P1 = Leu (Suc-Ala-Leu-Pro-Phe-pNA), data from Park et al. 1992): 4.3e+06 M⁻¹ s⁻¹ | Specific activity at 15° C. ([1]; Substrate P1 = Phe, data from Park et al. 1992): 2e+06 M⁻¹ s⁻¹ | Specific activity at 15° C. ([1]; Substrate P1 = Val, data from Park et al. 1992): 900000 M⁻¹ s⁻¹

recombinant human FKBP52 (Mr 52,000 FK506 binding protein) (enzyme)
Specific activity at 15° C. (PPIase, chymotrypsin-coupled assay) (Suc-Ala-Ala-Pro-Phe-pNA): 26000 M⁻¹ s⁻¹ | Specific activity at 15° C. (PPIase, chymotrypsin-coupled assay) (Suc-Ala-Leu-Pro-Phe-pNA): 390000 M⁻¹ s⁻¹ | Specific activity at 15° C. (PPIase, chymotrypsin-coupled assay) (Suc-Ala-Phe-Pro-Phe-pNA): 73000 M⁻¹ s⁻¹ | Specific activity at 15° C. (PPIase, chymotrypsin-coupled assay) (Suc-Ala-Val-Pro-Phe-pNA): 39000 M⁻¹ s⁻¹

B1: hFKBP52: Mr 52,000 FK506 binding protein; recombinant human form expressed in E. coli, 459 residues (SEQ ID NO: 26) (protein)
chain: T1 sequence (Q02790 1-459)
Specific activity at 15° C. ([2]; Substrate P1 = Ala): 26000 M⁻¹ s⁻¹ | Specific activity at 15° C. ([2]; Substrate P1 = Leu (Suc-Ala-Leu-Pro-Phe-pNA)): 390000 M⁻¹ s⁻¹ | Specific activity at 15° C. ([2]; Substrate P1 = Leu (Suc-Ala-Leu-Pro-Phe-pNA), listed as FKBP52): 390000 M⁻¹ s⁻¹ | Specific activity at 15° C. ([2]; Substrate P1 = Phe): 73000 M⁻¹ s⁻¹ | Specific activity at 15° C. ([2]; Substrate P1 = Val): 39000 M⁻¹ s⁻¹ | Specific activity relative to recombinant human FKBP12 (rhFKBP12) ([2]; substrate Suc-Ala-Leu-Pro-Phe-pNA, 15° C.): approximately 10%
